Consider 1 molecule from patent US20220127377A1 (DIACCURATE, published 2022).

For the test, the target named is T1, human PLA2-GIB (mature, active form) (human, UniProt P04054 23-148).
T1 construct: Recombinant human PLA2GIB standard in the ELISA, and endogenous PLA2GIB of patient plasma in the functional assays; also called GIBsPLA2; sPLA2-GIB
The experiment in a line: sandwich ELISA, coated capture mAb, recombinant human standard. Here is the method: Sandwich ELISAs specific to proPLA2-GIB, PLA2GIB or both forms were performed using mAbs previously generated. For the detection of proPLA2GIB, the #8G11 mAb was used as a capture antibody and the #1C11 mAb was used as a revelation mAb. For the detection of PLA2GIB, the #14G9 mAb was used as a capture antibody and the #1C11 mAb was used as a revelation mAb. For the detection of both forms, the #7A10 mAb was used as a capture antibody and the #1C11 mAb was used as a revelation mAb. Typical assay conditions were as follows: #8G11- or #14G9-coated microplate was incubated for one hour with recombinant human proPLA2GIB or PLA2GIB standards (varying concentrations of protein in assay buffer) to generate a calibration curve. EDTA plasma samples were diluted (5- to 50-fold) in dilution buffer to their respective wells and the ELISA plate was incubated for 1 h at room temperature. […] Following washing with PBS containing 0.05% Tween 20, the binding of mAb was detected by treatment with a Streptavidin-HRP conjugate for 15 min at room temperature. TMB was added, reaction was stopped and absorbance at 450 nm was determined on a microplate reader. Signals were analyzed with a 4-parameter fit analysis using Prism™ software (Graph Pad).

T1 sequence (P04054 23-148): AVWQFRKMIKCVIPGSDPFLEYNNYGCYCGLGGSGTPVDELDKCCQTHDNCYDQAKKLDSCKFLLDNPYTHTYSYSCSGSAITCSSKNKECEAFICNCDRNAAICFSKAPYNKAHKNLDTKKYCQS

B1: monoclonal antibody 14G9 (antibody, V domains shown)
VH: QVQLQQPGAELVKPGASVKLSCKASGYTFTNYWIHWVKRRPGQGLEWIGNIDPSDTRTHYNQKFKDKATLAVDKSSSTAYMQLSSLTSEDSAVFYCARQTLYYEALDYWGQGTTLTVSS
VL: DIVMTQSHKLMSTSVGDRVSITCKASQDVSTAVAWYQEKPGQSPKLLIYWASTRHTGVPNRFTGSRSGTDYTLTISSVQAEDLALYYCQQDYSTPPTFGAGTKLELKR
notes: also called #14G9 mAb; clone 14G9
Take B1: the binding result is “binds”.
